One test addresses CUL5/RBX2 complex (UniProt Q93034).
Test [1] concerns the target T1, UBE2F residues 26-185 (UBE2F core) (UniProt Q969M7 26-185).
T1 construct: UBE2F, residues 26-185 (UBE2F core); Unlabelled when added to 15N RBX2 RING; 15N-labelled when RBX2 RING was added to it; source: E. coli BL21(DE3)-Star or BL21(DE3), purified (Ni-NTA, TEV cleavage, SEC)
T1 sequence (looked up): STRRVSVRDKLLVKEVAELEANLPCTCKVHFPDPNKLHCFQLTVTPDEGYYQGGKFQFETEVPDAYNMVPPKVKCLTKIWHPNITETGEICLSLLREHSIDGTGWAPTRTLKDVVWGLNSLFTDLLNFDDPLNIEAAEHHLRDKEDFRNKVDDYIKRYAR
Briefly: NMR titration; 15N-HSQC of 50 µM 15N-labelled RBX2 RING with unlabelled E2 added (∼100 µM in Fig. 3D; increasing concentrations in Fig. 5D); 20°C; 100 mM NaCl, 1 mM DTT, 25 mM HEPES pH 7.5. The following applies: both partners purified.

For another test, the target named is T2, UBE2F, full-length (UniProt Q969M7 1-185).
T2 construct: UBE2F, NEDD8-conjugating enzyme, full-length; Unlabelled in the HSQC experiments on 15N-labelled RBX2 RING; also called NEDD8 E2; NEDD8-conjugating enzyme UBE2F; source: E. coli BL21(DE3)-Star or BL21(DE3), purified (Ni-NTA, TEV cleavage, SEC)
T2 sequence (looked up): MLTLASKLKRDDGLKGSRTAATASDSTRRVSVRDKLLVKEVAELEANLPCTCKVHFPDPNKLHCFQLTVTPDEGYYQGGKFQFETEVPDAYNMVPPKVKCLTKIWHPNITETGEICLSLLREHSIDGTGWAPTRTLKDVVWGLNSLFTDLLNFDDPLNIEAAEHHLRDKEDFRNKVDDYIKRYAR
The test is described as above. The note with it: both partners purified.

CUL5/RBX2 complex, sequence (Q93034 whole entry, the tested form may be a part, one chain of several): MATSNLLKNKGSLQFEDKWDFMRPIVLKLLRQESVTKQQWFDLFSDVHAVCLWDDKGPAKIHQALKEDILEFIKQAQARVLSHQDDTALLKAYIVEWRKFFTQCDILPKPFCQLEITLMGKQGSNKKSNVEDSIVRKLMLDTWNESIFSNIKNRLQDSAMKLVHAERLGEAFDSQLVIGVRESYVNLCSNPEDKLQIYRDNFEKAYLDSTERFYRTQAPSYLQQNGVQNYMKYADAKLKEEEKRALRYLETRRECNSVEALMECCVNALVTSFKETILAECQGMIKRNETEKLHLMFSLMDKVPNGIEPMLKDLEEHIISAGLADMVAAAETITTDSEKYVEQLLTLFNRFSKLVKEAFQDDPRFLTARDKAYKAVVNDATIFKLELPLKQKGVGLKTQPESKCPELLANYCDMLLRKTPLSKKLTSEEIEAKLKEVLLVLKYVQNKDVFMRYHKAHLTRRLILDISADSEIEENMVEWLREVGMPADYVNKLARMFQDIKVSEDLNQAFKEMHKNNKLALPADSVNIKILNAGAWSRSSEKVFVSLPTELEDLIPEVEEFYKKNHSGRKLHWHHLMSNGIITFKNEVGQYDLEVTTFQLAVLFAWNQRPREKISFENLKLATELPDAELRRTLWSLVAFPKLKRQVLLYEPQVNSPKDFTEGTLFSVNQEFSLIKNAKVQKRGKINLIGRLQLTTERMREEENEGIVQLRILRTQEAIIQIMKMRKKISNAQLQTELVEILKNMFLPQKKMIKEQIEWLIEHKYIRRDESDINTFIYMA

In the case of “UBE2F (N92A) (from UniProt Q969M7 26-185) (enzyme)”, the rate of NEDD8 transfer from UBE2F mutant to CUL5/RBX2 (pulse-chase), against wild-type UBE2F (orders of magnitude (reduction)) with CUL5/RBX2 complex is 3.

B1: RBX2 RING domain (44-113) (domain or fragment, UniProt Q9UBF6 44-113, looked up)
chain: DVECDTCAICRVQVMDACLRCQAENKQEDCVVVWGECNHSFHNCCMSLWVKQNNRCPLCQQDWVVQRIGK
notes: RBX2 (RING-box protein 2), RING domain, residues 44-113; 15N-labelled when the E2 enzymes were added to it; unlabelled when added to 15N UBE2F core; also called RBX2 core domain; source: E. coli BL21(DE3)-Star or BL21(DE3), with ZnCl2, purified (Ni-NTA, TEV cleavage, SEC)
As for B1, the binding result is given as “binds” in test [1] and “binds” in the test with UBE2F, full-length.

The values above are taken from article PMC3531493, “Inhibition of a NEDD8 Cascade Restores Restriction of HIV by APOBEC3G” (PLoS Pathogens, 2012).
